# Measurements reported in article PMC12524980.
# Molecular target: PpiC of E. faecium (mature PpiC, residues 25–336) (E. faecium)
# Experiment: SEC-MALS; SEC coupled to light scattering (SEC-LS); 500 micrograms loaded on Superdex 200 increase 10/300 GL (PpiC) or Superdex 75 increase 10/300 GL (PpiC^ΔC); 50 mM Tris-HCl, 150 mM NaCl, 5% glycerol, pH 7.8; 0.5 mL/min
substance,measurement,value
"PpiC of E. faecium (mature PpiC, residues 25–336) (enzyme)",stoichiometry N,2
